# According to US20250026813A1 (published 2025):
# Substitutions are numbered along the chain they refer to.
# B1: YANG-1204 (antibody, V domains shown)
# VH: QVQLVESGGGVVQPGRSLRLSCAVSGFTFSNYGIHWVRQAPGKGLVWVAVISYEGSIKYYGDSVKGRFTISRDNSKNTLYLQMNSLRAEDTAVYYCARGAVAGNDAFDIWGQGTMVTVSS
# VL: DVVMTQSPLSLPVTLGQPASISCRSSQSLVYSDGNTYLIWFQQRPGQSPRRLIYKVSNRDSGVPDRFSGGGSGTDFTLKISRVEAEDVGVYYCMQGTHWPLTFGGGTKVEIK
# B2: YANG-1207 (antibody, V domains shown)
# VH: QVQLVESGGGVVQPGRSLRLSCAASGFTFSSYGMHWVRQAPGKGLEWVSVIWYDGTNKYYADSVKGRFTISRDNSKNTLYLQMNSLRAEDTAVYYCAREGVEFTGYFDYWGQGTLVTVSS
# VL: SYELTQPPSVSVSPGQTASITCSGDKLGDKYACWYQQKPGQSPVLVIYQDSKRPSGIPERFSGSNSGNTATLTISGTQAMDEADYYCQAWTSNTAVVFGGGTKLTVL
# B3: YANG-1203 (antibody, V domains shown)
# VH: EVRLVESGGALVQPGRSLRLSCAASGFIFDGYAMHWVRQVPGKGLEWVSGISWNSGNIGYADSVKGRFTISRDNAKNSLYLQMNSLRAEDTALYYCAKDIRPSGKYYYGMDVWGQGTTVTVSS
# VL: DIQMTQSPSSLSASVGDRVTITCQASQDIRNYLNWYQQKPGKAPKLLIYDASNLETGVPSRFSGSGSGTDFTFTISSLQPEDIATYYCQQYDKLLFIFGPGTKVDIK
# B4: YANG-1206 (antibody, V domains shown)
# VH: QVHLVESGGGMVQPGRSLRLSCAASGFTFSIYAMHWVRQAPGKGLEWVAVISYDGSNKYYADSVKGRFTISRDNSKNTLYLQMNSLRAEDTAVYYCAKVYGGSYWGGFDYWGQGTLVTVSS
# VL: QSVLTQPPSVSGAPGQRVTISCTGTSSNIGSIYDVHWYQQLPGTAPKLLIYGNSNRPSGVPDRFSGSKSGTSASLAITGLQAEDEADYYCQSYDTSLSGSWVFGGGTKLNVL
# B5: YANG-1205 (antibody, V domains shown)
# VH: QVQLVQSGAEVKKPGASVKVSCKASGYTFTSYCIHWVRQAPGQGLEWMGIINPSGGGTIFAQKFQGRVTMTRDTSTTTVYMELGSLRSDDTALYYCARGWSYDFWSGPDYWGQGTLVSVSS
# VL: DIVMTQTPLSLSVTPGQPASISCKSSQSLLHSDGKTYLYWYLQKPGQPPQLLIYEVSNRFSGVPDRFSGSGSGTDFTLKISRVGAEDVGIYYCMHSIKLPPTFGQGTKVEIK
# B6: YANG-2205 (antibody, V domains shown)
# VH: QIQLVQSGAEVKKPGASVKFSCKTSGYTFTSYYMVWVRQAPGQGLEWMGIIKPSGGNTIYAQKFQGRVTMTRDTSTNTVYMDLSSLRSEDTAVYYCARTGDRAFDVWGHGTMITVSS
# VL: QSVLTQPPSVSAAPGQKVTISCSGSSSNIGNNFVSWYQQFPGTAPKLLIYDNNKRPSGIPDRFSGSKSGTSATLGITGLQTGDEADYYCGTWDSSLGAGVFGGGTKLTVL
# B7: YANG-2207 (antibody, V domains shown)
# VH: B6 VH with I2M, F20I, S31N, M81L, D101N, I113V
# VL: B6 VL
# B8: YANG-2206 (antibody, V domains shown)
# VH: B6 VH with F20L, Y60F, S84N, I113V
# VL: B6 VL with F33Y, L107V
# B9: IMPI-002 (antibody, V domains shown)
# VH: EVQLVESGGGLIQPGGSLRLSCAASGVTVSSNYMSWVRQAPGKGLEGVSVIYSGGSTYYADSVKGRFTISRDNSKNTLYLQMNSLRAEDTAVYYCARDTVVYGMDVWGQGTTVTVSS
# VL: DIQLTQSPSFLSASVGDRVTITCWASQGISSYLAWYQQKPGKAPKLLIYAASTLQSGVPSRFSGSGSGTEFTLTISSLQPEDFATYYCQQLNSYPLTFGGGTKVEIK
# B10: IMPI-052 (antibody, V domains shown)
# VH: B9 VH with S35N, S56T
# VL: B9 VL with A50T
# B11: IMPI-028 (antibody, V domains shown)
# VH: B9 VH with V27F, G47W, T99Y, V100G, V101D, Y102L, G103Y, M104F, V106Y, T112L
# VL: EIVLTQSPGTLSLSPGERATLSCRASQSISSYLAWYQQKPGQAPRLLIYGASSRATGIPDKFSGSGSGTDFTLTISRLEPEDFAVYYCQQYGSSPRTFGQGTKVEIK
# B12: IMPI-056 (antibody, V domains shown)
# VH: EVQLVESGGGLIQPGGSLRLSCAASGLTVSSNYMNWVRQAPGKKLEWVSVIYSGGSTFYADSVRGRFTISRDNSKNTLFLQMNSLRAEDSAVYYCARDLGPYGVDVWGQGTTVTVSS
# VL: B9 VL with G100Q, K103R, V104L
# B13: IMPI-004 (antibody, V domains shown)
# VH: QVQLVESGGGVVQPGRSLRLSCAASGFTFSSYGMHWVRQAPGKGLEWVAVIWYDGGNKYYADSVKGRFTISRDNSKNTLYLQMNSLRAEDTAVYYCARVNVLMGYGMDVWGQGTTVTVSS
# VL: EIVLTQSPGTLSLSPGDKATLSCRASQSIISSFLAWYQQKPGQAPRLLIYGASSRATGIPDRFSGSGSGTDFTLTISRLEPEDFAVYYCQQYGSSLTFGGGTKVEIK
# B14: IMPI-067 (antibody, V domains shown)
# VH: QVQLVESGGGVVQPGTSLRLSCAASGFTFNSFGMHWVRQAPGKGLEWVAVISYDGSSKYYADSVKGRFTISRDNSKNTLYLQMNSLRAEDTAVYYCAKDEGDYDDYYYGMDVWGQGTTVTVSS
# VL: EIVLTQSPGSLSLSPGERATLSCRASQSLSSRYLAWYHQKPGQAPRLLIYGASSRATGIPDRFSGSGSGTDFTLTISGLEPEDFAVYYCQQYGNSITFGGGTKVEIK
# B15: IMPI-038 (antibody, V domains shown)
# VH: B14 VH with T16R, N30S, F32Y, S57D, D99T, E100V, G101A, D102G, D104Y, D105Y
# VL: DIQMTQSPSSVSASVGDRVTVTCRASQDISSWLAWFQQKPGKAPKFLIYDASNLENGVPSRFSGSGSGTDFTLTISSLQPEDFATYYCQQAKSFPWTFGQGTKVEIN
# B16: IMPI-013 (antibody, V domains shown)
# VH: EVQLVESGGGLVQPGRSLRLSCAASGFTFDDYAMHWVRQTPGKGLEWVSGISWNSGSIGYADSVKGRFTISRDNAKNSLYLQMNSLRAEDTALYYCTKDLGLGIGFYYGLDVWGQGTTVTVSS
# VL: AIQMTQSPSSLSTSVGDRVTITCRASQGIRNDLGWYQLKPGKAPKLLIYDASTLQSGVPSRFSGSGSGTDFTLTISSLEPEDLATYYCLHHYTYPWTFGHGTKVELK
# B17: IMPI-068 (antibody, V domains shown)
# VH: QVQLVESGGDVVQPGRSLRLSCAASGFTFSRYGMHWVRQAPGKGLEWVAVISYDGSDKYYADSVKGRFTISRDNSKNTLYLQMNSLRAEDTAVYYCAKQLPLYYYYYGMDVWGQGTTVTVSS
# VL: AIQLTQSPSSLSASVGDRVTITCRASQGISSALAWYQQKPGKAPNLLIYDASSLESGVPSRFSGSGSGTDFTLTISSLQPEDFATYYCQQFNIYPHTFGPGTKVDIK
# Target: SARS-CoV-2 spike protein bearing furin mutation and truncation in retention sequence, on pseudoviral particles (SARS-CoV-2, UniProt P0DTC2 14-1255)
# Test: cell-based or functional assay
row,Binder,PV neutralization % (Ab 1 ug/mL) [%]
1,B1,44.8
2,B2,39.9
3,B3,41.4
4,B4,45.9
5,B5,40.2

# Target: SARS-CoV-2 spike protein bearing furin mutation and truncation in retention sequence, presented in t (SARS-CoV-2, UniProt P0DTC2 14-1273)
# Test: cell-based or functional assay
Binder,PV neutralisation IC50 [nM],PV neutralization % (Ab 1 ug/mL) [%]
B6,3.35,47.5
B7,2.59,57.8
B8,3.96,42

# Target: full-length stabilised spike trimer protein of SARS-CoV-2 virus (in-house, soluble ECD with trimeris (SARS-CoV-2, UniProt P0DTC2 14-1208; P10104 458-484)
# Test: not given
row,Binder,HTRF deltaF [deltaF]
1,B9,913
2,B10,1130
3,B11,480
4,B12,1630
5,B13,952
6,B14,963
7,B15,1310
8,B16,1420
9,B17,1600
